Results on two molecules are retold here after US12203932B2, “Genetically encoded biosensors” (Howard Hughes Medical Institute, priority 2011, dated 2025).

A short description of data set [1]: Fluorescence response and titration of soluble EcYbeJ253-cpGFP sensors with glutamate. The class given is binding. As to conditions: soluble protein; read-out: Kd (affinity) for glutamate. As for the experimental part:
Several thousand variants were screened in semi-high-throughput fashion, measuring fluorescence intensity of clarified cell lysate in the absence and presence of 10 mM glutamate.

Data set [2] is described as follows: Thermal stability by circular dichroism (CD) of MBPs and MBP-cpGFP sensors. In kind it is physicochemical. The settings on record: CD signal vs temperature. As for the experimental part:
Thermal stability of PfMBP171-cpGFP.L2FE was measured using circular-dichroism (CD) and compared to the original EcMBP and PfMBP binding proteins, along with cpGFP. Following the changes by means of CD allowed determination of whether different transitions happened in alpha, beta, or both kinds of structures.
Given that cpGFP is a beta barrel, strong transitions in the beta signal alone were associated with changes in this kind of structure. In the same way, transitions in both kinds of signals were associated with the binding protein structure. […] Also, the addition of maltose to EcMBP stabilized the protein by about 10° C.

B1: wild-type YbeJ: E. coli glutamate-binding protein; SEQ ID NO:107 (protein, listed as Escherichia coli)
chain: MNAKIIASLAFTSMFSLSTLLNPAYAEEQEKALNFGIISTESQQNLKPQWTPFLQDMEKKLGVKVNAFFAPDYAGIIQGMRFNKVDIAWYGNLSAMEAVDRANGQVFAQTVAADGSPGYWSVLIVNKDSPINNLNDLLAKRKDLTFGNGDPNSTSGFLVPGYYVFAKNNISASDFKRTVNAGHETNALAVANKQVDVATNNTENLDKLKTSAPEKLKELKVIWKSPLIPGDPIVWRKNLSETTKDKIYDFFMNYGKTPEEKAVLERLGWAPFRASSDLQLVPIRQLALFKEMQSVKDNKGLNEQDKLAKTTAIQAQLDDLDRLNNALSAMSSVSKAVQ
Usually Kd stands for a measure of binding affinity in units of concentration. Turning to B1, in data set [1], the Kd was about 1000 nM.

B2: PfMBP: Pyrococcus furiosus maltotriose binding protein; SEQ ID NO:106 (protein, listed as Pyrococcus furiosus)
chain: MRRATYAFALLAILVLGVVASGCIGGGTTTPTQTSPATQPTTTQTPTQTETQAVECGSGKVVIWHAMQPNELEVFQSLAEEYMALCPEVEIVFEQKPNLEDALKAAIPTGQGPDLFIWAHDWIGKFAEAGLLEPIDEYVTEDLLNEFAPMAQDAMQYKGHYYALPFAAETVAIIYNKEMVSEPPKTFDEMKAIMEKYYDPANEKYGIAWPINAYFISAIAQAFGGYYFDDKTEQPGLDKPETIEGFKFFFTEIWPYMAPTGDYNTQQSIFLEGRAPMMVNGPWSINDVKKAGINFGVVPLPPIIKDGKEYWPRPYGGVKLIYFAAGIKNKDAAWKFAKWLTTSEESIKTLALELGYIPVLTKVLDDPEIKNDPVIYGFGQAVQHAYLMPKSPKMSAVWGGVDGAINEILQDPQNADIEGILKKYQQEILNNMQG
As to B2, in data set [2], the “denaturation temperature / Tm of binding protein (component)” value was at least 80 °C.
